± gives the uncertainty stated by the source.
Assay: protein stability index of a GFP-peptide fusion (yeast GPS) (PSI 1-4); higher = more stable; sorted into four equal gates, so the index is relative within each strain
Outline: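 The protein stability index of a peptide was calculated by multiplying its read frequency in each gate by that gate's number and adding the products. The peptides were tiled 17-residue stretches of yeast proteins, fused downstream of GFP on a Cherry-expressing plasmid and carried in yeast as a pooled library. Mid-log cultures in leucine-free medium were sorted into four equal gates by GFP/Cherry ratio, and each gate's plasmids were PCR-amplified and Illumina-sequenced.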

| Sequence | protein stability index (pdr5∆) | protein stability index (san1∆) | protein stability index (ubr1∆) | protein stability index (doa10∆) |
| --- | --- | --- | --- | --- |
| LFLTAPDSCNMQEKAAH [YCS4] | 2.67 ± 0.24 | 2.86 ± 0.12 | 2.92 ± 0.11 |  |
| KIEFPLPSEDSRAQILQ [RPT5] | 3.18 ± 0.13 | 3.11 ± 0.09 | 3.51 ± 0.11 | 3.39 ± 0.15 |
| ASAKSVRSGVSKSAPSK [YAR002W/NUP60] | 2.92 ± 0.1 | 2.96 ± 0.064 | 2.99 ± 0.056 | 2.96 ± 0.078 |
| TNSHLPAGKQVEISLVN [FAS1] | 3.37 ± 0.13 | 3.36 ± 0.069 | 3.12 ± 0.084 | 3.48 ± 0.14 |
| VNGRTKSNTIPVTSIPS [GAL11] | 2.87 ± 0.11 | 2.99 ± 0.077 | 2.95 ± 0.079 | 2.9 ± 0.072 |
| IPVEILVRRLSDIKQGY [PRE9] | 2.72 ± 0.095 | 2.79 ± 0.061 | 2.87 ± 0.06 | 2.95 ± 0.08 |
| IQQLISQFLKRVHANLQ [SNF11] | 1.61 ± 0.044 | 1.52 ± 0.068 | 1.54 ± 0.038 | 1.63 ± 0.051 |
| VEKTEKPKKPKGRAYKR [RPS30A] | 3.24 ± 0.091 | 3.07 ± 0.06 | 3.05 ± 0.07 | 3.16 ± 0.098 |
| PHLLKQGLAMVEKYAPD [RRP42] | 2.35 ± 0.11 |  |  | 2.02 ± 0.13 |
| SADCELLGIDATVPSGR [RPO31] | 3.06 ± 0.18 |  | 3.32 ± 0.081 |  |
| EIALKGLESLLNIGLGA [YCS4] | 2.47 ± 0.092 | 3.03 ± 0.13 | 2.77 ± 0.21 | 2.65 ± 0.11 |
| RIIGLSATLPNYEDVGR [BRR2] | 2.18 ± 0.039 | 2.33 ± 0.044 | 1.94 ± 0.039 | 2.23 ± 0.045 |
| ERNAFLSDYEVLKFLTD [RPC17] | 3.04 ± 0.087 | 3.28 ± 0.05 | 3.05 ± 0.086 | 3.44 ± 0.096 |
| PSTDKNEKKTETNAKPF [YLR335W/NUP2] | 3.28 ± 0.094 | 3.34 ± 0.044 | 3.33 ± 0.096 | 3.32 ± 0.11 |
| PLSESLRLVDDDENNPS [RRP6] | 3.12 ± 0.096 | 2.98 ± 0.084 | 3.08 ± 0.084 | 3.15 ± 0.11 |
| TKKSKLESTKAETDYVD [DSN1] | 2.9 ± 0.069 | 2.73 ± 0.087 | 3.03 ± 0.059 | 2.58 ± 0.073 |
| KNGKIYLKHNSIAEEIP [RET1] | 2.81 ± 0.05 | 2.61 ± 0.074 | 2.52 ± 0.037 | 2.97 ± 0.059 |
| NDICSVENYETSSAFFY [SIR4] | 2.88 ± 0.051 | 2.64 ± 0.05 | 2.77 ± 0.053 | 2.82 ± 0.046 |
| EGDASPFTDITVEGISK [RPB2] | 2.97 ± 0.17 | 3.08 ± 0.092 | 3.07 ± 0.21 | 3.17 ± 0.14 |
| IHLQRFDEGTTLLSPKD [RPO21] | 2.57 ± 0.14 | 2.91 ± 0.16 | 2.98 ± 0.2 | 2.94 ± 0.14 |
| GARPGRVARRNAARKAE [RPS9A] | 3.45 ± 0.17 |  | 3 ± 0.098 | 3.3 ± 0.13 |
| SSLFNNSTNSNTTKPAF [YJL041W/NSP1] | 2.15 ± 0.049 | 2.61 ± 0.042 | 2.06 ± 0.037 | 2.45 ± 0.054 |
| IQSKAVEQGYEDAFNFW [YCG1] | 3.33 ± 0.17 | 3.57 ± 0.12 |  | 3.37 ± 0.13 |
| ENEFVVLLDARDIEKIT [CDC53] | 2.98 ± 0.17 |  | 3.08 ± 0.14 |  |
| YILSLVSIKDSTGCVVG [YMR129W/POM152] | 1.47 ± 0.047 | 1.92 ± 0.062 | 1.48 ± 0.034 | 1.41 ± 0.041 |
| ILQIREEIPSKSWDDSV [RRP6] | 2.76 ± 0.092 | 2.32 ± 0.084 | 2.7 ± 0.055 | 2.27 ± 0.078 |

| Sequence | protein stability index (pdr5∆) | protein stability index (san1∆) | protein stability index (ubr1∆) | protein stability index (doa10∆) |
| --- | --- | --- | --- | --- |
| EKCKEINVETVYDIMAL [BRR2] | 2.44 ± 0.049 | 2.57 ± 0.07 | 2.5 ± 0.046 | 2.28 ± 0.059 |
| LVLYDAENDVIEATDLG [BRR2] | 3.26 ± 0.12 | 3.45 ± 0.092 | 3.24 ± 0.066 | 3.29 ± 0.13 |
| GDLVYARVCTAEKELEA [RRP40] | 1.51 ± 0.19 | 1.46 ± 0.19 | 1.2 ± 0.23 | 1.3 ± 0.09 |
| ECPLDPGGYFIVNGTEK [RET1] | 3.34 ± 0.095 | 3.26 ± 0.088 | 3.29 ± 0.082 | 3.18 ± 0.12 |
| LLDAGCKVVAEMIRGRS [SKP1] | 2.06 ± 0.14 |  | 1.91 ± 0.1 |  |
| KIGDLGLARKFHNMLQT [SSN3] | 3.14 ± 0.1 | 3.23 ± 0.058 | 3.37 ± 0.045 | 2.9 ± 0.085 |
| LANNVESKLRDDLERLK [RPS18A] | 3.27 ± 0.16 | 2.97 ± 0.24 | 3.41 ± 0.049 | 3.45 ± 0.16 |
| ENDEEDIYMHDVNSASK [RRP4] | 3.47 ± 0.095 | 3.01 ± 0.095 | 3.31 ± 0.059 | 3.47 ± 0.098 |
| IDLDNDEDDDEDVTDQE [DLS1] | 2.89 ± 0.16 | 2.86 ± 0.083 | 3.17 ± 0.15 | 3.21 ± 0.12 |
| PLQSIPEIGNRKINLFY [SWI1] | 1.48 ± 0.072 | 2.54 ± 0.073 | 1.43 ± 0.064 | 1.51 ± 0.07 |
| KGPIIISKNPSNGIFYG [SIR2] | 2.5 ± 0.061 | 1.92 ± 0.083 | 2.3 ± 0.053 | 2.74 ± 0.067 |
| GQPVNDFIDTATRHVLM [RPS3] | 3.02 ± 0.06 | 3.1 ± 0.051 | 2.96 ± 0.07 | 2.96 ± 0.081 |
| QNNSTGSSSIIYYDSYI [SSN2] | 2.8 ± 0.1 | 2.79 ± 0.056 | 2.81 ± 0.081 | 2.63 ± 0.095 |
| FEGTPPFSLTYVRTEET [YMR129W/POM152] | 2.63 ± 0.056 | 2.54 ± 0.059 | 2.6 ± 0.041 | 2.31 ± 0.052 |
| GGQTKPVFHKKAKTTKK [RPL42A] | 2.94 ± 0.076 | 2.73 ± 0.064 | 2.89 ± 0.045 | 2.72 ± 0.056 |
| PKELGGLGMISASHILI [PRP8] | 2.67 ± 0.053 | 2.14 ± 0.084 | 2.41 ± 0.047 | 2.36 ± 0.072 |
| VEELPTFHDYDMVKLDI [RRP42] | 2.75 ± 0.063 | 2.87 ± 0.045 | 3.13 ± 0.033 | 2.51 ± 0.055 |
| KNAAESSYMGKHWTEKS [PRP28] | 3.24 ± 0.17 |  | 3.46 ± 0.11 | 3.17 ± 0.12 |
| LSLDSDVKFPSNTTTQI [SMC3] | 3.37 ± 0.14 | 2.81 ± 0.15 | 3.32 ± 0.18 | 2.9 ± 0.25 |
| SEGISEATREVFGISKT [ITC1] | 3.42 ± 0.16 |  | 3.28 ± 0.2 |  |
| IEETSAAIKDLDDFGEE [RRP43] |  |  |  | 2.85 ± 0.19 |
| SVVRGNTFKVLSKFFFF [COB] | 2.2 ± 0.13 | 2.44 ± 0.093 | 1.83 ± 0.069 | 2.11 ± 0.065 |
| GFVRNSFFSGLSPPEFL [RPO31] | 2.95 ± 0.079 | 3.11 ± 0.08 | 3.13 ± 0.052 | 2.99 ± 0.077 |
| KTNEESAKMILLSDPTI [PRP8] | 2.95 ± 0.16 | 2.94 ± 0.1 | 2.92 ± 0.042 | 2.77 ± 0.12 |
| VVNSNFAKEHNATVNLA [YJR042W/NUP85] | 2.32 ± 0.12 | 2.75 ± 0.078 | 2.67 ± 0.13 | 2.82 ± 0.1 |

Source: the supplement of paper PMC9732359
